Patent CN114106188A (SHENZHEN PEOPLE HOSPITAL, dated 2022)

Biological target: T1, ERp57蛋白 (蛋白二硫化物异构酶A3, purified recombinant full-length protein)
T1 chain: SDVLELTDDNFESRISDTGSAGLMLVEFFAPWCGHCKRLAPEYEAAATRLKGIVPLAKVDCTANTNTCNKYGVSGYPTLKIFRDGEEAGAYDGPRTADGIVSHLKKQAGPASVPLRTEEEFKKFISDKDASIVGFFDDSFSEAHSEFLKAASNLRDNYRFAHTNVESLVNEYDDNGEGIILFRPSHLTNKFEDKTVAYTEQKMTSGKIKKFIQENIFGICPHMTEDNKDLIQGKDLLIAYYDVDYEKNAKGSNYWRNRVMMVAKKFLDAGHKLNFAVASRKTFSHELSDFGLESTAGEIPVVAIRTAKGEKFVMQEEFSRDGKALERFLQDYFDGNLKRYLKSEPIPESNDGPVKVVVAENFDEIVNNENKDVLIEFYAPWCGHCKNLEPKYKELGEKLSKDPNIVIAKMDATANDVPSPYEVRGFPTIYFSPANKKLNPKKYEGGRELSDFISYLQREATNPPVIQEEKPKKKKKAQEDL
Experiment: SPR (Biacore), antigen protein immobilised on chip, nanobody as analyte

B1: NbA11纳米抗体 (VHH)
VHH: AVQLVESGGGLVQAGGSLRLSCAASGRAFSRYAVGWFRQTPGKEREFVAAISYHGGYTAYADSVKGRFTISRDSTSNTVHLQMNSLKPEDTAVYYCNTDARALYDYWGQGTQVTVSS
notes: Alpaca-derived nanobody from a naive phage display library; Expressed in E. coli from PET-14B with an HA tag and purified on a Ni column
Kd: 419 nM
